Reference: the supplement of paper PMC5998384

Tests used:
HeLa Kyoto [1] = test: solubility change mitosis vs G1/S (difference of NP-40 vs SDS log2 ratios) (log2 ratio difference); higher = more soluble in mitosis
HeLa Kyoto [2] = test: solubility in G1/S (NP-40 vs SDS abundance) (log2 ratio); higher = more soluble; conditions: cell cycle stage: G1/S
HeLa Kyoto [3] = test: thermal stability score vs G1/S (z-score of summed log2 fold changes over temperatures); higher = more thermally stable than in G1/S
HeLa Kyoto [4] = test: melting temperature (median over replicates), in situ; higher = more thermally stable
[5] = cell cycle stage: early G1 (4.5 h after nocodazole release)
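For melting temperature (median over replicates), in situ in this document: HeLa Kyoto cells synchronized by double thymidine or nocodazole block, proteins quantified by TMT10plex mass spectrometry, three independent biological replicates.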
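For solubility change mitosis vs G1/S (difference of NP-40 vs SDS log2 ratios) in this document: synchronized HeLa Kyoto cells (double thymidine block for G1/S, nocodazole release for mitosis), protein amounts in NP-40 versus SDS lysates quantified by mass spectrometry, three biological replicates.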
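For solubility in G1/S (NP-40 vs SDS abundance) in this document: HeLa Kyoto cells arrested at G1/S by double thymidine block, proteins quantified by TMT10plex mass spectrometry in mild NP-40 versus SDS extracts, three biological replicates.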
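For thermal stability score vs G1/S (z-score of summed log2 fold changes over temperatures) in this document: synchronized HeLa Kyoto cells, proteins quantified by TMT10plex mass spectrometry, three biological replicates, mitosis taken 0.5 h after nocodazole release, G1/S directly after double thymidine block.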

“MAERKPNGGSGGASTSSSGTNLLFSSSATEFSFNVPFIPVTQASASPASLLLPGEDSTDVGEEDSFLGQTSIHTSAPQTFSYFSQVSSSSDPFGNIGQSPLTTAATSVGQSGFPKPLTALPFTTGSQDVSNAFSPSISKAQPGAPPSSLMGINSYLPSQPSSLPPSYFGNQPQGIPQPGYNPYRHTPGSSRANPYIAPPQLQQCQTPGPPAHPPPSGPPVQMYQMPPGSLPPVPSSVQSPAQQQVPARPGAPSVQVPSPFLLQNQYEPVQPHWFYCKEVEYKQLWMPFSVFDSLNLEEIYNSVQPDPESVVLGTDGGRYDVYLYDRIRKAAYWEEEPAEVRRCTWFYKGDTDSRFIPYTEEFSEKLEAEYKKAVTTNQWHRRLEFPSGETIVMHNPKVIVQFQPSSVPDEWGTTQDGQTRPRVVKRGIDDNLDEIPDGEMPQVDHLVFVVHGIGPVCDLRFRSIIECVDDFRVVSLKLLRTHFKKSLDDGKVSRVEFLPVHWHSSLGGDATGVDRNIKKITLPSIGRFRHFTNETLLDILFYNSPTYCQTIVEKVGMEINHLHALFMSRNPDFKGGVSVAGHSLGSLILFDILSNQKDLNLSKCPGPLAVANGVVKQLHFQEKQMPEEPKLTLDESYDLVVENKEVLTLQETLEALSLSEYFSTFEKEKIDMESLLMCTVDDLKEMGIPLGPRKKIANFVEHKAAKLKKAASEKKAVAATSTKGQEQSAQKTKDMASLPSESNEPKRKLPVGACVSSVCVNYESFEVGAGQVSVAYNSLDFEPEIFFALGSPIAMFLTIRGVDRIDENYSLPTCKGFFNIYHPLDPVAYRLEPMIVPDLDLKAVLIPHHKGRKRLHLELKESLSRMGSDLKQGFISSLKSAWQTLNEFARAHTSSTQLQEELEKVANQIKEEEEKQVVEAEKVVESPDFSKDEDYLGKVGMLNGGRRIDYVLQEKPIESFNEYLFALQSHLCYWESEDTALLLLKEIYRTMNISPEQPQH [SEC23IP]” was tested, and the “solubility change mitosis (log2)” value (HeLa Kyoto [1]) was -0.197, the “solubility in G1/S (log2)” value (HeLa Kyoto [2]) was 0.171 and the thermal stability score (HeLa Kyoto [3]; [5]) was -1.73. The thermal stability score (HeLa Kyoto [3]; cell cycle stage: mitosis) was -1.12, the melting temperature (HeLa Kyoto [4]; cell cycle stage: G1/S) was 50.5 °C and the melting temperature (HeLa Kyoto [4]; cell cycle stage: mitosis) was 50.3 °C.
With “MAETLSGLGDSGAAGAAALSSASSETGTRRLSDLRVIDLRAELRKRNVDSSGNKSVLMERLKKAIEDEGGNPDEIEITSEGNKKTSKRSSKGRKPEEEGVEDNGLEENSGDGQEDVETSLENLQDIDIMDISVLDEAEIDNGSVADCVEDDDADNLQESLSDSRELVEGEMKELPEQLQEHAIEDKETINNLDTSSSDFTILQEIEEPSLEPENEKILDILGETCKSEPVKEESSELEQPFAQDTSSVGPDRKLAEEEDLFDSAHPEEGDLDLASESTAHAQSSKADSLLAVVKREPAEQPGDGERTDCEPVGLEPAVEQSSAASELAEASSEELAEAPTEAPSPEARDSKEDGRKFDFDACNEVPPAPKESSTSEGADQKMSSPEDDSDTKRLSKEEKGRSSCGRNFWVSGLSSTTRATDLKNLFSKYGKVVGAKVVTNARSPGARCYGFVTMSTAEEATKCINHLHKTELHGKMISVEKAKNEPVGKKTSDKRDSDGKKEKSSNSDRSTNLKRDDKCDRKDDAKKGDDGSGEKSKDQDDQKPGPSERSRATKSGSRGTERTVVMDKSKGVPVISVKTSGSKERASKSQDRKSASREKRSVVSFDKVKEPRKSRDSESHSRVRERSEREQRMQAQWEREERERLEIARERLAFQRQRLERERMERERLERERMHVEHERRREQERIHREREELRRQQELRYEQERRPAVRRPYDLDRRDDAYWPEAKRAALDERYHSDFNRQDRFHDFDHRDRGRYPDHSVDRREGSRSMMGEREGQHYPERHGGPERHGRDSRDGWGGYGSDKRMSEGRGLPPPPRRDWGDHGRREDDRSWQGTADGGMMDRDHKRWQGGERSMSGHSGPGHMMNRGGMSGRGSFAPGGASRGHPIPHGGMQGGFGGQSRGSRPSDARFTRRY [SAFB]” the “solubility change mitosis (log2)” value (HeLa Kyoto [1]) was 0.541, the “solubility in G1/S (log2)” value (HeLa Kyoto [2]) was -0.896 and the thermal stability score (HeLa Kyoto [3]; [5]) was 0.453. It also gave a thermal stability score (HeLa Kyoto [3]; cell cycle stage: mitosis) of 0.986, a melting temperature (HeLa Kyoto [4]; cell cycle stage: G1/S) of 50 °C and a melting temperature (HeLa Kyoto [4]; cell cycle stage: mitosis) of 50.5 °C.
With “MAETYDFLFKFLVIGSAGTGKSCLLHQFIENKFKQDSNHTIGVEFGSRVVNVGGKTVKLQIWDTAGQERFRSVTRSYYRGAAGALLVYDITSRETYNSLAAWLTDARTLASPNIVVILCGNKKDLDPEREVTFLEASRFAQENELMFLETSALTGENVEEAFLKCARTILNKIDSGELDPERMGSGIQYGDASLRQLRQPRSAQAVAPQPCGC [RAB4B]” the “solubility change mitosis (log2)” value (HeLa Kyoto [1]) was -0.29, the “solubility in G1/S (log2)” value (HeLa Kyoto [2]) was 0.181 and the thermal stability score (HeLa Kyoto [3]; [5]) was -1.18. It also gave a thermal stability score (HeLa Kyoto [3]; cell cycle stage: mitosis) of -2.73, a melting temperature (HeLa Kyoto [4]; cell cycle stage: G1/S) of 56.8 °C and a melting temperature (HeLa Kyoto [4]; cell cycle stage: mitosis) of 57.9 °C.
With “MAFANLRKVLISDSLDPCCRKILQDGGLQVVEKQNLSKEELIAELQDCEGLIVRSATKVTADVINAAEKLQVVGRAGTGVDNVDLEAATRKGILVMNTPNGNSLSAAELTCGMIMCLARQIPQATASMKDGKWERKKFMGTELNGKTLGILGLGRIGREVATRMQSFGMKTIGYDPIISPEVSASFGVQQLPLEEIWPLCDFITVHTPLLPSTTGLLNDNTFAQCKKGVRVVNCARGGIVDEGALLRALQSGQCAGAALDVFTEEPPRDRALVDHENVISCPHLGASTKEAQSRCGEEIAVQFVDMVKGKSLTGVVNAQALTSAFSPHTKPWIGLAEALGTLMRAWAGSPKGTIQVITQGTSLKNAGNCLSPAVIVGLLKEASKQADVNLVNAKLLVKEAGLNVTTSHSPAAPGEQGFGECLLAVALAGAPYQAVGLVQGTTPVLQGLNGAVFRPEVPLRRDLPLLLFRTQTSDPAMLPTMIGLLAEAGVRLLSYQTSLVSDGETWHVMGISSLLPSLEAWKQHVTEAFQFHF [PHGDH]” the “solubility change mitosis (log2)” value (HeLa Kyoto [1]) was 0.0444, the “solubility in G1/S (log2)” value (HeLa Kyoto [2]) was 0.233 and the thermal stability score (HeLa Kyoto [3]; [5]) was -2.03. It also gave a thermal stability score (HeLa Kyoto [3]; cell cycle stage: mitosis) of -1.42, a melting temperature (HeLa Kyoto [4]; cell cycle stage: G1/S) of 55.9 °C and a melting temperature (HeLa Kyoto [4]; cell cycle stage: mitosis) of 55.4 °C.
